Laboratory results taken from article PMC8201785.

Assays:
CA09 HA = assay: BLI
PR34 HA = assay: BLI

Question: With MEDI8852 as the substance, how does the Kd (CA09 HA) read?
Answer: The Kd was 0.502 nM.

Question: What about the koff (CA09 HA) of the same substance?
Answer: Its koff is 0.000147 s⁻¹.

Question: And the Kd (PR34 HA)?
Answer: The Kd was 1.36 nM.

Question: And the koff (PR34 HA)?
Answer: The koff was 0.00023 s⁻¹.
